Assay results reported in US20170145086A1 (VISTERRA, published 2017).
Residue numbers refer to the chain shown, from its start.

T1: human Tweak (TNFSF12; Abcam) (human, UniProt O43508 94-249, limits assumed)
T1 sequence (looked up): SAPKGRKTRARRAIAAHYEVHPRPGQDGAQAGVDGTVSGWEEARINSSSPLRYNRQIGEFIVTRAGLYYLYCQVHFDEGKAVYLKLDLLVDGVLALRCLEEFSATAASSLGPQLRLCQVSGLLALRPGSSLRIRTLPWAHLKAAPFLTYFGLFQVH

T2: HA-GCN4 hAPRIL (amino acid residues 105-250) (human, UniProt O75888 105-250)
T2 construct: Bought (R&D Systems); also called HA-tagged GCN4 human APRIL; HA-GCN4-huAPRIL; not shown: N-terminal HA tag; GCN4 isoleucine zipper oligomerization domain
T2 sequence: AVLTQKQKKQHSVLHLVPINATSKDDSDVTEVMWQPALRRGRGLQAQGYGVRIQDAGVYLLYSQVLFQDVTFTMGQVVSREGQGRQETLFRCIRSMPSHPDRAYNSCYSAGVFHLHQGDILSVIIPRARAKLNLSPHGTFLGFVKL

T3: HA-GCN4 mAPRIL (amino acid residues 96-241) (mouse, UniProt Q9D777 96-241, Assembles as a homotrimer through the GCN4 zipper; one protomer is given.)
T3 construct: Bought (R&D Systems); also called HA-tagged mouse APRIL (R&D Systems); recombinant mouse APRIL; not shown: N-terminal HA tag and GCN4 isoleucine-zipper trimerisation domain, with any linker, of the bought R&D Systems protein
T3 sequence: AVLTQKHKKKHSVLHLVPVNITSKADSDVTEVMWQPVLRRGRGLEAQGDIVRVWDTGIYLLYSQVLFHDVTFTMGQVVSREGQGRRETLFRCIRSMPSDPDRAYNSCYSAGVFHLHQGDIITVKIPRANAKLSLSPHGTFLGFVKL

B1: monoclonal antibody 3530 (antibody, mouse IgG2, V domains shown)
VH: QVQLQQSGAELVRPGASVKLSCKASGYTFTDHEMHWVRQTPVHGLEWIGVIDPDTGDTTYNQKFKGKATLTADKSSSTAYMDLRSLTSEDSAVFYCTRWTGGDYWGHGTTLTVSS
VL: DAVMTQTPLSLSVTIGQPASISCKSSQSLLYSDGKTYLNWFQQRPGQSPKRLMYQVSKLDPGIPDRFSGSGSETDFTLKISRVEAEDLGVYYCLQGTYYPYTFGSGTKLEIK
B2: monoclonal antibody 3631 (antibody, V domains shown)
VH: EIQLQQSGPELVKPGASVKVSCKASGYSFTDYNIYWVKQSHGKSLEWIGYIDPSNGGPGYNQKFRGKATLTVDKSSSTAFLHLNSLTSEDSAVYYCARRDNYGSGTMDYWGQGTSVTVSS
VL: DIVMTQSQKFMSTSVGDRVSITCKASQNVGTDVSWYQQKPGKSPKPLIYWASNRFTGVPDRFIGSGSGTDFTLTISNVQSEDLADYFCEQYSIYPLTFGAGTKLELK
notes: mouse-derived
B3: monoclonal antibody 3732 (antibody, V domains shown)
VH: B2 VH with Y32D, I34M, S54L, P58T, R65K, G103A, S104T
VL: B2 VL with Q27K, I63T, S76N, I93S
notes: mouse-derived
B4: monoclonal antibody 2218 (antibody, mouse IgG2, V domains shown)
VH: DVQLQESGPGLVKPSQSLSLTCSVTGYSITSGYYWNWIRQFPGNKLEWMGYISYDGYNNYNPSLKNRISITRDTSKNQFFLKLNSVTTEDTATYYCANYYDYEDWYFGVWGTGTTVTVSS
VL: DIVLTQSPASLAMSLGKRATISCRASESVSIIGTNSIHWYQQKPGQPPKLLIYHASNLETGVPARFSGSGSRTDFTLTIDPVEEDDVAIYYCLQSRKIPYTFGGGTKLEIK
B5: 4237 (antibody, V domains shown)
VH: QAHLKESGPGLVAPSQSLSITCTVSGFSLTDYDVHWVRQSPGKGLEWLGVIWNDGSTDYNTAFISRLTISKDNSKSQVFFKMNSLQADDTAIYYCARNWYGGYWFAYWGQGTLVTVSA
VL: DIQMTQSPASLSASAGETVTITCRSSENIYSYLAWYQQKQGKSPQLLVYNANALAEGVPSRFSGSGSVTQFSLKINSLQPEDFGSYYCQHHYGTPFTFGSGTKLEIK
notes: also called monoclonal antibody 4237
B6: monoclonal antibody 4540 (antibody, V domains shown)
VH: QVQLQQSGPELVKPGASVKISCKASGYTFADYYINWVKQRPGQGLEWIGWIFPGSGSTYYNEKFKGKATLTVDKSSSTAYMLLSSLTSEDSAVYFCARGDSGRAMDYWGQGTSVTVSS
VL: DIQMTQSPSSLSASLGGKVTITCKASQDINKYIAWYQHKPGKGPRLLIHYTSTLQSGIPSRFSGSGSGRDYSFSISNLEPEDNATYYCLQYDNLLTFGAGTKLELK
notes: mouse-derived
B7: monoclonal antibody 3833 (antibody, V domains shown)
VH: QVQLQQSGAELVRPGTSVKMSCKAAGYTFTNYWIGWVKQRPGHGLEWIGDIYPGGIGGGYTKYNEKFKGKATLTADTSSSTAYMQLGSLTSEDSAIYFCSRSETGRAMDYWGQGTSVTVSS
VL: B6 VL with Q55K, S56P, N77D, N83I, L95N, A99G, L105I
notes: mouse-derived

These binders were tested against T1, human Tweak (TNFSF12; Abcam) (assay: indirect ELISA, cytokine coated).

| binding result | Binder |
| --- | --- |
| no binding (tested: 10 µg/ml (p-1128)) | B1 |
| no binding (tested: 10 µg/ml (p-1128)) | B2 |
| no binding (tested: 10 µg/ml (p-1128)) | B3 |
| no binding (tested: 10 µg/ml (p-1128)) | B4 |
| no binding (tested: 10 µg/ml (p-1128)) | B5 |
| no binding (tested: 10 µg/ml (p-1128)) | B6 |
| no binding (tested: 10 µg/ml (p-1128)) | B7 |

The binders below were run against T2, HA-GCN4 hAPRIL (amino acid residues …) (assay: blocking ELISA, 4-parameter fit; blocked: human APRIL binding to human TACI-Fc).
Procedure: (§1) FIGS. 19A-19B depict the antibody inhibition of APRIL binding to TNFSF receptors TACI (FIG. 19A) and BCMA (FIG. 19B). Assay is based on blocking ELISA using recombinant human APRIL (R&D Systems) and Human TACI-Fc. Inhibition was analyzed by non-linear regression using a four parameter fit.
(§2) Recombinant TACI-Fc or BCMA-Fc was coated on 96 well plates in 0.1 M carbonate-bicarbonate buffer (pH 9.6), overnight at 4° C. Plates were washed three times with 1×PBST (PBS+0.025% Tween 20) followed by blocking with 1% BSA in 1×PBS, 37° C. for 1 hour. All subsequent wash steps were carried out with 1×PBST. To assess antibody blocking, either 15 ng/mL or 50 ng/mL HA-GCN4-huAPRIL was preincubated with varying antibody concentrations ranging from 0.03-30 μg/mL in binding buffer comprised of 1% BSA and 0.025% Tween-20 in 1×PBS. Preincubation was carried out at 30° C. for 1 hour with mixing. Antibody-APRIL premix with 50 ng/mL APRIL or 15 ng/mL APRIL was then added to TACI-Fc coated or BCMA-Fc coated plates, respectively, and incubated for an additional hour at 30° C. HA-tagged APRIL binding to either receptor was quantified using a goat polyclonal anti-HA tag-HRP antibody (Abcam) added at a 1:10000 dilution followed by colorimetric development using 100 μl/well of freshly prepared TMB substrate (KPL) carried out for up to 30 minutes at room temperature before quenching enzymatic reaction by the addition of 1N sulfuric acid. ELISA signal was quantified by absorbance at 450 nm. ELISA data was analyzed by non-linear regression. IC₅₀ values were calculated based on a 4 parameter fit of antibody titration curves. […] Non-blocking antibodies Aprly-1 or Aprly-5 (Enzo Biosciences) were used as negative controls. Mouse specific, blocking antibody aprily-1-1 (Adipogen) was generally used as a positive control in experiments using mouse APRIL (HA-GCN4-mAPRIL).

| IC50 | Binder |
| --- | --- |
| 2.9 nM | B1 |
| 0.27 nM | B2 |
| 0.98 nM | B4 |
| 0.9 nM | B5 |
| 1.01 nM | B6 |
| 2.25 nM | B7 |

These binders were tested against T2, HA-GCN4 hAPRIL (amino acid residues …) (assay: indirect ELISA on human APRIL; column head prints IC50 (pM), legend paragraph 725 calls the values EC50).
Text: Purified antibodies were further characterized for APRIL binding, APRIL species cross reactivity (human APRIL vs. mouse APRIL), and receptor blocking activity using TACI-Fc. For binding, an APRIL-based indirect ELISA was used to determine by first approximation the relative affinity of purified anti-APRIL antibodies to either human APRIL or mouse APRIL. ELISA method was as generally described above. […] Blocking and wash steps were completed as described. Binding of anti-APRIL antibodies to APRIL was quantified using an 8 point dilution of test antibody that spanned over a four log scale. Antibody binding to APRIL was detected using a rabbit anti-mouse IgG (H+L)-HRP conjugate (Jackson ImmunoResearch Laboratories). Antibody binding data was analyzed by non-linear regression analysis using a 3 parameter fit to determine max binding and apparent EC₅₀ values. […] Mouse specific antibody Apry-1-1 (Adipogen) was likewise used for quantification of antibody binding to mouse APRIL.

| EC50 | Binder |
| --- | --- |
| 0.0489 nM | B1 |
| 0.0166 nM | B2 |
| 0.0072 nM | B3 |
| 0.005 nM | B4 |
| 0.0126 nM | B5 |
| 0.0129 nM | B6 |
| 0.0175 nM | B7 |

These binders were tested against T3, HA-GCN4 mAPRIL (amino acid residues …) (assay: blocking ELISA; blocked: mouse APRIL binding to BCMA).

| IC50 (read off the curve) | binding result | Binder |
| --- | --- | --- |
| ~300 ng/mL |  | B1 |
|  | binds | B2 |
|  | binds | B3 |
| ~300 ng/mL |  | B6 |
| ~60 ng/mL |  | B7 |

What follows are binders tested against T2, HA-GCN4 hAPRIL (amino acid residues …) (assay: blocking ELISA; blocked: human APRIL binding to human BCMA-Fc).
Design: concentration or dose not given beside the values
Procedure: as §1, §2

| % Inhibition | Binder |
| --- | --- |
| 37% | B1 |
| 100% | B2 |
| 100% | B3 |
| 99% | B4 |
| 93% | B5 |
| 98% | B6 |
| 96% | B7 |
